Results taken from PMC8041770 (2021).

B1: yeast-displayed wild-type human LIFR CBM I–Ig-like domains (Gln45 to Gln337) [human] / recombinant human LIF, histidine-tagged (hLIF-His) [human] (parent complex)
chain 1: QKKGAPHDLKCVTNNLQVWNCSWKAPSGTGRGTDYEVCIENRSRSCYQLEKTSIKIPALSHGDYEITINSLHDFGSSTSKFTLNEQNVSLIPDTPEILNLSADFSTSTLYLKWNDRGSVFPHRSNVIWEIKVLRKESMELVKLVTHNTTLNGKDTLHHWSWASDMPLECAIHFVEIRCYIDNLHFSGLEEWSDWSPVKNISWIPDSQTKVFPQDKVILVGSDITFCCVSQEKVLSALIGHTNCPLIHLDGENVAIKIRNISVSASSGTNVVFTTEDNIFGTVIFAGYPPDTPQ
chain 2: not shown

Variants of: B1
Assay: flow cytometry of yeast-displayed LIFR variants; parent: 1; read off a plot

Variant	ratio to parent
chain 1 L218P, chain 1 H240R, chain 1 I257V, chain 1 V262A, chain 1 T273I, chain 1 N277D	~12
chain 1 I217V, chain 1 L218P, chain 1 N242D, chain 1 I257V, chain 1 I260V, chain 1 V262A, chain 1 T273I, chain 1 N277D	~12
chain 1 L218P, chain 1 H240R, chain 1 N242D, chain 1 I257V, chain 1 I260V, chain 1 V262A, chain 1 T273I, chain 1 N277D	~13

More lines, now with the values ahead:

ratio to parent	Variant
~15	chain 1 L218P, chain 1 H240R, chain 1 I257V, chain 1 I260V, chain 1 V262A, chain 1 T273I, chain 1 N277D
~6	chain 1 I217V, chain 1 L218P, chain 1 N242D, chain 1 V262A, chain 1 T273I, chain 1 N277D
~6	chain 1 L218P, chain 1 N242D, chain 1 I257V, chain 1 N277D
~13	chain 1 I217V, chain 1 L218P, chain 1 H240R, chain 1 N242D, chain 1 I257V, chain 1 I260V, chain 1 V262A, chain 1 T273I, chain 1 N277D
